For orientation: Tm means the temperature at the midpoint of the melting transition. In general, Solubility refers to the dissolved amount per volume that the medium holds.

Data set [1] is described as follows: Thermal denaturation midpoint (Tm) by CD spectroscopy. In kind it is physicochemical. The note with it: far UV CD, ellipticity at 222 nm, 50 µM protein, heating 20–90°C at 2°C/min. As for the experimental part:
Far UV circular dichroism (CD) spectra were acquired with a Jasco J-810 instrument at a protein concentration of 50 µM using a rectangular cell with a 0.1 cm path length. Spectra were recorded from 260–200 nm with a scan rate of 50 nm/min and a 1.0 nm bandwidth. A midpoint denaturation temperature (Tm) was determined by heating samples from 20–90°C at 2°C/min and monitoring ellipticity at 222 nm.

A short description of data set [2]: Solubility of the AIDA1 PTB domain and mutants. An excerpt:
Since the objective of the aromatic-alanine substitutions was to improve solubility for a structure determination, ^15N-HSQC spectra were used qualitatively.

B1: wild type: PTB domain (aa. 1043–1195) of human AIDA1b, amino terminal 6xHis tag and intervening thrombin site (protein, UniProt Q7Z6G8 1043-1195, looked up, fragment)
chain: TPVQYWQHHPEKLIFQSCDYKAFYLGSMLIKELRGTESTQDACAKMRANCQKSTEQMKKVPTIILSVSYKGVKFIDATNKNIIAEHEIRNISCAAQDPEDLSTFAYITKDLKSNHHYCHVFTAFDVNLAYEIILTLGQAFEVAYQLALQARKG
modifications: PTB domain His tag, thrombin site
notes: PTB domain (aa. 1043–1195) of human AIDA1b, amino terminal 6xHis tag and intervening thrombin site
For the molecule B1, the midpoint of thermal melting (Tm) in data set [1] amounted to 62 °C. Also, in data set [2], the “solubility (in words)” value is reported as “poor solubility” and the “soluble concentration, at least one day at room temperature” value is listed as 0.15 mM. In addition, the Solubility in data set [2] (concentrated until increased resonance line broadening or apparent turbidity, 15N-HSQC NMR read-out, 20 mM Na-phosphate, pH 7.8, […] NaCl, 0.05% (w/v) NaN3) worked out at 100 µM.

The values above are taken from paper PMC3683042, “Solution Structure and Peptide Binding of the PTB Domain from the AIDA1 Postsynaptic Signaling Scaffolding Protein” (PLoS ONE, 2013).
